The record followed here is article PMC2953525, “Subtle Alterations in PCNA-Partner Interactions Severely Impair DNA Replication and Repair” (PLoS Biology, 2010).

Common to all, as to assay: two-hybrid; quantitative Y2H: generation time of the YRG2 strains in liquid SC-Leu-Trp-His, given relative to cells expressing WT PCNA; average of at least 3 experiments
Common to all, as to details: partners not purified

For one assay, the target named is T1, pol30-Rad27L1 (yeast, UniProt P15873 1-258, IDCL DIDADFLKIEEL to D––VDILKIGEL).
T1 construct: PCNA (POL30), yeast; two residues after the first aspartic acid of the IDCL are deleted; source: yeast two-hybrid fusion (pAD-GAL4, strain YRG2)
T1 sequence: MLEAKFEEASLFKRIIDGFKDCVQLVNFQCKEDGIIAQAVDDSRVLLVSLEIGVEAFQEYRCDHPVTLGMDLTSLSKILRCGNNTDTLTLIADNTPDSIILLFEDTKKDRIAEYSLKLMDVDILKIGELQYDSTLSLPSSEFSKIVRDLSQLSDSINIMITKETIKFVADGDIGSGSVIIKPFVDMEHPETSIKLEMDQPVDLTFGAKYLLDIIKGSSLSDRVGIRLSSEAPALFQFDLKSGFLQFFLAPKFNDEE

For another assay, the target named is T2, pol30-Rad27E6 (yeast, UniProt P15873 1-258, IDCL DIDADFLKIEEL to DGDYDILKIREL).
T2 construct: PCNA (POL30), yeast; source: yeast two-hybrid fusion (pAD-GAL4, strain YRG2)
T2 sequence: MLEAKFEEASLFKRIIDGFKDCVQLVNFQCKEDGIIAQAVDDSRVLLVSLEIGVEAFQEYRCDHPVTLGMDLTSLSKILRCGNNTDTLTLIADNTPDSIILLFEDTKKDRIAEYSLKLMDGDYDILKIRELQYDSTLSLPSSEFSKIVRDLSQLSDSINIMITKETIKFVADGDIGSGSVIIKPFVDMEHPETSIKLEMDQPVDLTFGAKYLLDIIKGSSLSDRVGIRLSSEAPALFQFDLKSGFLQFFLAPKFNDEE

The target in the next assay is T3, pol30-Rad30E2 (yeast, UniProt P15873 1-258, IDCL DIDADFLKIEEL to DDDWDFLKILEL).
T3 construct: PCNA (POL30), yeast; source: yeast two-hybrid fusion (pAD-GAL4, strain YRG2)
T3 sequence: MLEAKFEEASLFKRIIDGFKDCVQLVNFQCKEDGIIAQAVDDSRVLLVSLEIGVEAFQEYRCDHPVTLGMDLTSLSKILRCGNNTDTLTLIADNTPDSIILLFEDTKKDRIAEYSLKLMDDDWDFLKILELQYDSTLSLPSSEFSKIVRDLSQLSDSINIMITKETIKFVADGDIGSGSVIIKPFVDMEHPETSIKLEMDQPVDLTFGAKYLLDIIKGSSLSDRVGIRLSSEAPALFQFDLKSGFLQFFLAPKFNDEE

Another assay addresses T4, pol30-Rad27E31 (yeast, UniProt P15873 1-258, IDCL DIDADFLKIEEL to DGDYDVLKIREL).
T4 construct: PCNA (POL30), yeast; source: yeast two-hybrid fusion (pAD-GAL4, strain YRG2)
T4 sequence: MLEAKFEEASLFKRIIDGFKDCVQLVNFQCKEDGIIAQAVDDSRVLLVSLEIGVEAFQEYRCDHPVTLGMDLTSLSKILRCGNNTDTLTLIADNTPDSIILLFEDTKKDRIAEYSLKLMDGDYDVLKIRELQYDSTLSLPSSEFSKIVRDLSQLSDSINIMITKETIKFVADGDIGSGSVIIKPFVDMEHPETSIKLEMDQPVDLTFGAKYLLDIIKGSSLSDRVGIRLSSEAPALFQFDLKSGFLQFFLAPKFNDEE

A further assay addresses T5, pol30-Rad30E9 (yeast, UniProt P15873 1-258, IDCL DIDADFLKIEEL to DNDWDFLKIDEL).
T5 construct: PCNA (POL30), yeast; also called Pol30-Rad30E9p; source: yeast two-hybrid fusion (pAD-GAL4, strain YRG2)
T5 sequence: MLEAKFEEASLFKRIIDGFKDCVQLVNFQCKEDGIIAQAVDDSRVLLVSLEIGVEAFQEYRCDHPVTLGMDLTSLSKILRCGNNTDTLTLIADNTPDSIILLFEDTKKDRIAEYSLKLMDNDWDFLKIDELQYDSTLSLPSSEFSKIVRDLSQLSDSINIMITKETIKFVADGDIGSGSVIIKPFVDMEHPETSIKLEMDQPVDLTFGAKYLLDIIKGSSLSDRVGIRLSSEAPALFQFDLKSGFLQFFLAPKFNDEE

For the next assay, the target named is T6, pol30-Rad27L2 (yeast, UniProt P15873 1-258, IDCL DIDADFLKIEEL to D––VDTLKITEL).
T6 construct: PCNA (POL30), yeast; two residues after the first aspartic acid of the IDCL are deleted; source: yeast two-hybrid fusion (pAD-GAL4, strain YRG2)
T6 sequence: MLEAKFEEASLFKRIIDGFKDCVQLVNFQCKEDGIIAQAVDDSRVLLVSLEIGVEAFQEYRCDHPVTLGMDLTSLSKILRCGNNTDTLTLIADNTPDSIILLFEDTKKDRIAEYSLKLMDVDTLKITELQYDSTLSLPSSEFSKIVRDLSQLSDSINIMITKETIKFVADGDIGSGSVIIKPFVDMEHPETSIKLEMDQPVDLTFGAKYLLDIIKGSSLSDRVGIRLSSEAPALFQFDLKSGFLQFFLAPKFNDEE

B1: Rad27 (natural protein, yeast, UniProt P26793 1-382, looked up)
chain: MGIKGLNAIISEHVPSAIRKSDIKSFFGRKVAIDASMSLYQFLIAVRQQDGGQLTNEAGETTSHLMGMFYRTLRMIDNGIKPCYVFDGKPPDLKSHELTKRSSRRVETEKKLAEATTELEKMKQERRLVKVSKEHNEEAQKLLGLMGIPYIIAPTEAEAQCAELAKKGKVYAAASEDMDTLCYRTPFLLRHLTFSEAKKEPIHEIDTELVLRGLDLTIEQFVDLCIMLGCDYCESIRGVGPVTALKLIKTHGSIEKIVEFIESGESNNTKWKIPEDWPYKQARMLFLDPEVIDGNEINLKWSPPKEKELIEYLCDDKKFSEERVKSGISRLKKGLKSGIQGRLDGFFQVVPKTKEQLAAAAKRAQENKKLNKNKNKVTKGRR
notes: Rad27 (endonuclease), yeast; also called pBD-Rad27; source: yeast two-hybrid fusion (pBD-GAL4, strain YRG2)
Consider B1, for which the “fold change in affinity relative to WT PCNA (Y2H generation time)” value in the assay with pol30-Rad27L1 was found to be 1.7 fold; with pol30-Rad27E6 it was 1.5 fold; in the assay with pol30-Rad30E2 it was 0.4 fold; in the assay with pol30-Rad27E31, 1.5 fold; with pol30-Rad30E9, 0.5 fold; in the assay with pol30-Rad27L2 it was 1.5 fold.
